According to US20050282743A1, “Molecular interactions in cells” (Arbor Vita Corporation, priority 2001, published 2005):
One block for each binder: values may come before it.

Experiments:
Test in all cases: G' assay
[1] = molecular target: T1, GST-KIAA0973 PDZ domain 1 (Homo sapiens (Human)), Q9Y2H9
T1 chain: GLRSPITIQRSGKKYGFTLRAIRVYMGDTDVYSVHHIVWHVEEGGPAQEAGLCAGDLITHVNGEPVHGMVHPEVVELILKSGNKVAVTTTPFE

[2] = molecular target: T2, GST-KIAA0807(S) PDZ domain 1 (Homo sapiens (Human)), Q6P0Q8
T2 chain: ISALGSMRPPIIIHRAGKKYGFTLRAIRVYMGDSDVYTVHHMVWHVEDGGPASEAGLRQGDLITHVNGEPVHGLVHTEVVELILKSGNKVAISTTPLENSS

[3] = molecular target: T3, GST-MINT1 PDZ domain 2 (Mus musculus (Mouse)), B2RUJ5
T3 chain: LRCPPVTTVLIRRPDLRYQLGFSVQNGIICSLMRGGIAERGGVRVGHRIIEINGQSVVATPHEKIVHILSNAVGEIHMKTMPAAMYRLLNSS

[4] = molecular target: GST-KIAA807 [GST: P08515]
[5] = molecular target: GST-BAI-1 Associated Protein PDZ domain 5 (Homo sapiens (Human)), Q96QZ7
[6] = molecular target: T4, GST-MINT1 PDZ domains 1, 2, Q02410
T4 chain: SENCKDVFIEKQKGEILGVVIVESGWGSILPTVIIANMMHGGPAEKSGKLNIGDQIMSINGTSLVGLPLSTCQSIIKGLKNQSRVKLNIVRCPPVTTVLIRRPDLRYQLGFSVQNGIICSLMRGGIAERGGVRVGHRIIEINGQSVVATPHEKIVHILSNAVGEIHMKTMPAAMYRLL

[7] = molecular target: GST-PSD95 PDZ domains 1, 2, 3 (Homo sapiens), P78352
[8] = molecular target: GST-DLG1 PDZ domains 1, 2 (Homo sapiens), Q12959
[9] = molecular target: GST-BAI-1 Associated Protein PDZ domain 6 (Homo sapiens (Human)), Q96QZ7
[10] = molecular target: GST-KIAA1634 PDZ domain 1 (Homo sapiens (Human)), Q5TCQ9
[11] = molecular target: GST-BAI-1 Associated Protein PDZ domain 2 (Mus musculus (Mouse)), Q6RHR9
[12] = molecular target: T5, GST-TIP1 PDZ domain 1 (Table 9 insert) (Homo sapiens (Human)), O14907
T5 chain: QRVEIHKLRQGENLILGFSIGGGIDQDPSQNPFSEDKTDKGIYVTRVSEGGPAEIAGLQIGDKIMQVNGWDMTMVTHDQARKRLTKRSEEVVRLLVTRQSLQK

[13] = molecular target: T6, GST-INADL PDZ domain 8 (Homo sapiens (Human)), Q8NI35
T6 chain: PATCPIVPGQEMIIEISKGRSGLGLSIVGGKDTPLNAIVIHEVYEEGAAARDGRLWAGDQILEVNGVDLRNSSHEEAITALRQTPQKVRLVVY

[14] = molecular target: T7, GST-NeDLG PDZ domains 1, 2, Q92796
T7 chain: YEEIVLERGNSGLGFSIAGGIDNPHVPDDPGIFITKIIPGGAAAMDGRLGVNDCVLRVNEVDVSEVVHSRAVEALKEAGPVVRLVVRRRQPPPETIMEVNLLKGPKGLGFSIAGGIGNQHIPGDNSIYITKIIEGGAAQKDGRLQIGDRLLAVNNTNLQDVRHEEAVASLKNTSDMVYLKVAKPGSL

[15] = molecular target: T8, GST-KIAA0380 PDZ domain 1 (Homo sapiens (Human)), O15085
T8 chain: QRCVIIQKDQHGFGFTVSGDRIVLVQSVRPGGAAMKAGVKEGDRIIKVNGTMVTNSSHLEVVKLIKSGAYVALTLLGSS

[16] = molecular target: T9, GST-FLJ00011 PDZ domain 1 (Homo sapiens (Human)), Q9H5P4
T9 chain: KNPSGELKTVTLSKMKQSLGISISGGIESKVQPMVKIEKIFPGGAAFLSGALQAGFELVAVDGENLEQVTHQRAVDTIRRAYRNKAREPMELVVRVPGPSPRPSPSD

[17] = molecular target: T10, GST-APXL-1 PDZ domain 1 (Homo sapiens (Human)), Q13796
T10 chain: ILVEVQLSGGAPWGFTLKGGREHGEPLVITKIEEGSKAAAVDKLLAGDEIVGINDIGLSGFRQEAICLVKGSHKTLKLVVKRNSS

[18] = molecular target: GST-BAI-1 Associated Protein PDZ domain 3 (Homo sapiens (Human)), Q96QZ7
[19] = molecular target: GST-BAI-1 Associated Protein PDZ domain 4 (Homo sapiens (Human)), Q96QZ7
[20] = molecular target: T11, GST-PDZK1 PDZ domains 2, 3, 4, Q5T2W1
T11 chain: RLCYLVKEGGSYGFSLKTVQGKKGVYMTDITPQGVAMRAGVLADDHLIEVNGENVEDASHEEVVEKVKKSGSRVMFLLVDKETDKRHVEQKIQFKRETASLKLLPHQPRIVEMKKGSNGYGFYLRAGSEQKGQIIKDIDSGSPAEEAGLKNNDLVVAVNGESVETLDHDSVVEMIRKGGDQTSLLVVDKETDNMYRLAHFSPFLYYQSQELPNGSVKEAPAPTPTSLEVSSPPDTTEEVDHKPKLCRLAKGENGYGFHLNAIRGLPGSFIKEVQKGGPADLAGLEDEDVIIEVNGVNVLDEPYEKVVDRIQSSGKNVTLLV

[21] = molecular target: T12, GST-MUPP1 PDZ domain 3 (Homo sapiens (Human)), O75970
T12 chain: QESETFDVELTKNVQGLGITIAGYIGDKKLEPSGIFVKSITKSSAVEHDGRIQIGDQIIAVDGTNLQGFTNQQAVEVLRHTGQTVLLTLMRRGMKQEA

[22] = molecular target: T13, GST-PTPL1 PDZ domain 4 (Homo sapiens (Human)), Q12923
T13 chain: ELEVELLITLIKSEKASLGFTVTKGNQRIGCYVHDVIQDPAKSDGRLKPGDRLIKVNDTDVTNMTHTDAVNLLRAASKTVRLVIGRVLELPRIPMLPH

[23] = molecular target: T14, GST-MUPP1 PDZ domain 9 (Homo sapiens (Human)), O75970
T14 chain: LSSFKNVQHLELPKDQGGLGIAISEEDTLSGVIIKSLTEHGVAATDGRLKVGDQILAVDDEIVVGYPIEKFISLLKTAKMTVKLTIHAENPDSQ

[24] = molecular target: T15, GST-MUPP1 PDZ domain 7 (Homo sapiens (Human)), O75970
T15 chain: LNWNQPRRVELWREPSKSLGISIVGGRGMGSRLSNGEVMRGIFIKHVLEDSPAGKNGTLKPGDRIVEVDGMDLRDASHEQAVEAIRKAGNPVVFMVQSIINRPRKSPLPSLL

[25] = molecular target: T16, GST-AIPC PDZ domain 1 (Homo sapiens (Human)), O15018
T16 chain: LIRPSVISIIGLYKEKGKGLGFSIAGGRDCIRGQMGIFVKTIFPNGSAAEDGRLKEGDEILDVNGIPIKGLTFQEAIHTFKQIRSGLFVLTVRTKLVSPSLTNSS

[26] = molecular target: T17, GST-KIAA1634 PDZ domain 2 (Homo sapiens (Human)), Q5TCQ9
T17 chain: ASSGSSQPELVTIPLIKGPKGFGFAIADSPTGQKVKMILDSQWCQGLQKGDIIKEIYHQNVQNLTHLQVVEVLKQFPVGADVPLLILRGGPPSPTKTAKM

[27] = molecular target: T18, GST-PTPL1 PDZ domain 2 (Homo sapiens (Human)), Q12923
T18 chain: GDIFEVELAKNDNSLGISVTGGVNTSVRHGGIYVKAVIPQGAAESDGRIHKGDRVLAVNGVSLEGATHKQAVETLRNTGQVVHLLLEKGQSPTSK

[28] = molecular target: T19, GST-FLJ 10324 PDZ domain 1 [GST: P08515]
T19 chain: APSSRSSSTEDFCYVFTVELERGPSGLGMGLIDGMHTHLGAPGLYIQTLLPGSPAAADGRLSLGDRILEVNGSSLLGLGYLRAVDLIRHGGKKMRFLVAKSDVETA

[29] = molecular target: T20, GST-MUPP1 PDZ domain 10 (Homo sapiens (Human)), O75970
T20 chain: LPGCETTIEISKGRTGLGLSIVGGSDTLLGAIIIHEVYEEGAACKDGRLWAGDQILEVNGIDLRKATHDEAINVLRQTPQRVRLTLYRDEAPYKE

[30] = molecular target: T21, GST-Outer Membrane PDZ domain 1 (Homo sapiens (Human)), P57105
T21 chain: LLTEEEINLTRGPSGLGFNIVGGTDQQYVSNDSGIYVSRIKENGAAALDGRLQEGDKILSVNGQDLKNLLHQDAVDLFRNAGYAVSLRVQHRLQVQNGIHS

[31] = molecular target: GST-KIAA0147 PDZ domain 1 (Homo sapiens (Human)), Q14160
[32] = molecular target: T22, GST-KIAA0382 PDZ domain 1 (Canis lupus familiaris (Dog) (Canis familiaris)), A0A8I3
T22 chain: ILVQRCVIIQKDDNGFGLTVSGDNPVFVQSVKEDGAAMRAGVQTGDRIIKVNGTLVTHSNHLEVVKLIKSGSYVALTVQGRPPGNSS
Further: key of the grades not given here.

Chain of GST-KIAA807 [GST: P08515] (P08515 whole entry, the tested form may be a part): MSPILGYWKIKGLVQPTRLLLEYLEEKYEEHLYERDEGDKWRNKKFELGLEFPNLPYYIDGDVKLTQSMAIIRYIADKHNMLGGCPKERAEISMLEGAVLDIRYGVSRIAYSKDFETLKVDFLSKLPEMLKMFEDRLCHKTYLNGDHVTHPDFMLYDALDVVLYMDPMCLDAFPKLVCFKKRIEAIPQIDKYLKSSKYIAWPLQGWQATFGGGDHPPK
Chain of GST-BAI-1 Associated Protein PDZ domain 5 (Homo sapiens (Human)), Q96QZ7 (Q96QZ7 988-1099): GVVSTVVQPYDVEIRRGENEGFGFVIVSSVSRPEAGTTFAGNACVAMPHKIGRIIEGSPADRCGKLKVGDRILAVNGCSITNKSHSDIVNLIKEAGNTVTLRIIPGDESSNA
Chain of GST-KIAA1634 PDZ domain 1 (Homo sapiens (Human)), Q5TCQ9 (Q5TCQ9 401-502): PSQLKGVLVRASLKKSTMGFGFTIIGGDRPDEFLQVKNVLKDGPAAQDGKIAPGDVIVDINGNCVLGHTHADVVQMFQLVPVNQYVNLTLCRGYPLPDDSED
Chain of GST-PSD95 PDZ domains 1, 2, 3 (Homo sapiens), P78352 (P78352 62-395): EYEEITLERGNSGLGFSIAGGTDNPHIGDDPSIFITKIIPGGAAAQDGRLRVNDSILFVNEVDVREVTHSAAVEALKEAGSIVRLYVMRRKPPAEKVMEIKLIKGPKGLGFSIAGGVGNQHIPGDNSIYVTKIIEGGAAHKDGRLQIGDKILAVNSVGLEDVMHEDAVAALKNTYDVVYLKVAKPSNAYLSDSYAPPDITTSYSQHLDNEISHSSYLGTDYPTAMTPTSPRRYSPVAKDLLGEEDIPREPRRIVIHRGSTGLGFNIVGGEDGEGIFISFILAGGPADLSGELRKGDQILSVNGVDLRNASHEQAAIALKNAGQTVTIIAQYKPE
Chain of GST-BAI-1 Associated Protein PDZ domain 2 (Mus musculus (Mouse)), Q6RHR9 (Q6RHR9 455-558): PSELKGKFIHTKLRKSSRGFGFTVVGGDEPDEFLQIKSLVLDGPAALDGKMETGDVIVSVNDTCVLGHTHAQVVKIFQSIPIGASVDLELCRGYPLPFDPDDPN
Chain of GST-BAI-1 Associated Protein PDZ domain 3 (Homo sapiens (Human)), Q96QZ7 (Q96QZ7 other isoform, or with tags, fused parts or gaps): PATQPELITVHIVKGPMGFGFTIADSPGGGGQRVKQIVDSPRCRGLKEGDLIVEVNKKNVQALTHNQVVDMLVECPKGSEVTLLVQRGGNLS
Chain of GST-BAI-1 Associated Protein PDZ domain 4 (Homo sapiens (Human)), Q96QZ7 (Q96QZ7 other isoform, or with tags, fused parts or gaps): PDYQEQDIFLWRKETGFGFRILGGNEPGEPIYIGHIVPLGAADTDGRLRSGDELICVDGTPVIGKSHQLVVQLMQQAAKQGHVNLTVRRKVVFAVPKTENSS
Chain of GST-BAI-1 Associated Protein PDZ domain 6 (Homo sapiens (Human)), Q96QZ7 (Q96QZ7 1143-1233): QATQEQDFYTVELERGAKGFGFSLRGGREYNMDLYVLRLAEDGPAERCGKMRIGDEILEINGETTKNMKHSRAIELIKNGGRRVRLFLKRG
Chain of GST-KIAA0147 PDZ domain 1 (Homo sapiens (Human)), Q14160 (Q14160 other isoform, or with tags, fused parts or gaps): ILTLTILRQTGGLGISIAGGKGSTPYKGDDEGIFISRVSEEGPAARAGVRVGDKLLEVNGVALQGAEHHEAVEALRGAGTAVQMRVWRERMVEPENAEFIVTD

B1: CD46 (peptide)
peptide: KKGTYLTDETHREVKFTSL
modifications: not checked
Classification [1]: 2 A450 class | Classification [2]: 5 A450 class | Classification [3]: 1 A450 class | Classification [4]: 4 A450 class | Classification [5]: 1 A450 class | Classification [6]: 1 A450 class

B3: Mannose Receptor (peptide)
peptide: GTSDMKDLVGNIEQNEHSVI
modifications: not checked
Classification [2]: 1 A450 class | Classification [16]: 1 A450 class | Classification [4]: 1 A450 class | Classification [17]: 1 A450 class

B7: Fas Ligand (peptide)
peptide: SSKSKSSEESQTFFGLYKL
modifications: not checked
Classification [25]: 2 A450 class | Classification [1]: 2 A450 class | Classification [2]: 5 A450 class | Classification [4]: 5 A450 class | Classification [17]: 2 A450 class | Classification [6]: 4 A450 class | Classification [15]: 3 A450 class

B9: ErbB-4 receptor (peptide)
peptide: SLKPGTVLPPPPYRHRNTVV
modifications: not checked
Classification [7]: 1 A450 class | Classification [8]: 1 A450 class | Classification [18]: 1 A450 class | Classification [26]: 1 A450 class | Classification [14]: 1 A450 class | Classification [27]: 2 A450 class | Classification [28]: 1 A450 class

B10: APC-adenomatous polyposis coli protein (peptide)
peptide: ESSGTQSPKRHSGSYLVTSV
modifications: not checked
Classification [7]: 5 A450 class | Classification [8]: 5 A450 class | Classification [2]: 1 A450 class | Classification [29]: 1 A450 class | Classification [10]: 1 A450 class | Classification [30]: 2 A450 class | Classification [16]: 1 A450 class | Classification [11]: 1 A450 class | Classification [12]: 3 A450 class | Classification [31]: 1 A450 class | Classification [13]: 2 A450 class | Classification [26]: 1 A450 class | Classification [14]: 4 A450 class | Classification [4]: 1 A450 class | Classification [5]: 1 A450 class | Classification [32]: 1 A450 class

Other lines, results leading:

Classification [7]: 3 A450 class | Classification [8]: 3 A450 class | Classification [9]: 1 A450 class | Classification [10]: 1 A450 class | Classification [11]: 1 A450 class | Classification [12]: 5 A450 class | Classification [13]: 1 A450 class | Classification [14]: 2 A450 class | Classification [4]: 2 A450 class | Classification [6]: 1 A450 class | Classification [15]: 1 A450 class
B2: Nedasin (s-form) (peptide)
peptide: RNIEEVYVGGKQVVPFSSSV
modifications: not checked

Classification [10]: 1 A450 class | Classification [18]: 1 A450 class | Classification [4]: 1 A450 class | Classification [6]: 2 A450 class
B4: claudin 2 (peptide)
peptide: PGQPPKVKSEFNSYSLTGYV
modifications: not checked

Classification [8]: 1 A450 class | Classification [19]: 1 A450 class | Classification [4]: 1 A450 class | Classification [20]: 1 A450 class | Classification [5]: 1 A450 class | Classification [6]: 1 A450 class
B5: somatostatin receptor 4 (peptide)
peptide: EALQPEPGRKRIPLTRTTTF
modifications: not checked

Classification [21]: 1 A450 class | Classification [22]: 2 A450 class | Classification [2]: 1 A450 class | Classification [23]: 1 A450 class | Classification [24]: 1 A450 class | Classification [4]: 1 A450 class
B6: ephrin B1 (peptide)
peptide: PVYIVQEMPPQSPANIYYKV
modifications: not checked

Classification [21]: 1 A450 class | Classification [2]: 1 A450 class | Classification [23]: 1 A450 class | Classification [24]: 1 A450 class
B8: bone morphogenetic protein receptor (peptide)
peptide: TALRIKKTLAKMVESQDVKI
modifications: not checked
